# T1: GST-ABI5 (Arabidopsis thaliana, UniProt Q9SJN0 1-442)
# T1 construct: ABI5 (ABA … 5), Arabidopsis thaliana; Probably made in E. coli like GST and GST-HY5; source: purified
# T1 sequence (looked up): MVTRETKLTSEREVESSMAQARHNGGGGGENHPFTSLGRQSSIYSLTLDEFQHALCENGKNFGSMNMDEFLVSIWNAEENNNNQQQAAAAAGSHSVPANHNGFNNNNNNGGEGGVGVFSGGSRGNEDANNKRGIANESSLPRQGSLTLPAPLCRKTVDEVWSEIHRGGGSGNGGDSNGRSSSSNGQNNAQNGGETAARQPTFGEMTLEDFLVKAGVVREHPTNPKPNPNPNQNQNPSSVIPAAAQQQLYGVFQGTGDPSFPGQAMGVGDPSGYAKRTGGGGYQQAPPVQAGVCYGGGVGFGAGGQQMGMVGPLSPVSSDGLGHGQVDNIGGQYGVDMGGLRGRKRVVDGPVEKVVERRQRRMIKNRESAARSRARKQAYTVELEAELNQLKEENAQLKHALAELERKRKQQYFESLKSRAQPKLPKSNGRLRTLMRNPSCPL
# T2: GST-HY5 (Arabidopsis thaliana, UniProt O24646 1-168)
# T2 sequence: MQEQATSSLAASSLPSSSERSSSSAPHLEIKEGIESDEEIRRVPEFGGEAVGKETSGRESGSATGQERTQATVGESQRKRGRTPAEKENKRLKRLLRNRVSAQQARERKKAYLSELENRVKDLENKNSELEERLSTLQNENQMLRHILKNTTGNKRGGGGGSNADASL
# T3: 6xHis-BBX21 (STH2) (Arabidopsis thaliana, UniProt Q9LQZ7 1-331)
# T3 sequence: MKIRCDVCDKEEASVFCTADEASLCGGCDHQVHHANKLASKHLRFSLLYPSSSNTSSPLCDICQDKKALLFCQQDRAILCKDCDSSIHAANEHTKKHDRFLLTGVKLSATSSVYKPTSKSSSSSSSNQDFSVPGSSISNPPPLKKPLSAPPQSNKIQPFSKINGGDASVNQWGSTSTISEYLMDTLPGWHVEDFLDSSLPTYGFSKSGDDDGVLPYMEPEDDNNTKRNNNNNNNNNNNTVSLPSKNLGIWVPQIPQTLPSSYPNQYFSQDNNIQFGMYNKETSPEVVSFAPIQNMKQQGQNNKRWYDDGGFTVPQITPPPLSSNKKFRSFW
# Tests used:
# GST-ABI5 = molecular target: T1, GST-ABI5; assay: pull-down; 2 µg 6×His-BBX21 bound to Ni-NTA magnetic beads (2 h, 4°C), incubated overnight at 4°C with 2 µg GST or GST-ABI5; wash with 10 mM Tris pH 8.0, 100 mM NaCl, 0.1% Triton X-100, 5 mM imidazol; Western blot with anti-GST; settings: both partners purified
# GST-HY5 = molecular target: T2, GST-HY5; assay: EMSA; 0.5 ug protein; no BBX21; 10 mM Tris-HCl (pH not stated), 150 mM KCl, 1 mM DTT, 50 ng/ml poly(dI-dC), 2.5% glycerol, 0.05% NP-40, 100 mM ZnCl2 (so in the source), 0.5 ug/ml BSA, 20 min at room temperature; 6% native PAGE; settings: protein: recombinant; tags: N-terminal GST (pGEX-6P-1, printed pEGX-6P-1); chain copies: 2; label: 5' biotin; blunt (complementary oligonucleotides; second strand not seen in material)
# 6xHis-BBX21 (STH2) = molecular target: T3, 6xHis-BBX21 (STH2); assay: EMSA; 10 mM Tris-HCl (pH not stated), 150 mM KCl, 1 mM DTT, 50 ng/ml poly(dI-dC), 2.5% glycerol, 0.05% NP-40, 100 mM ZnCl2 (so in the source), 0.5 ug/ml BSA, 20 min at room temperature; 6% native PAGE; settings: protein: recombinant; tags: 6xHis; label: 5' biotin; blunt (complementary oligonucleotides; second strand not seen in material)
Binder,binding result (GST-ABI5),binding result (GST-HY5),binding result (6xHis-BBX21 (STH2))
"6×His-BBX21 (natural protein, Arabidopsis thaliana, UniProt Q9LQZ7 1-331, looked up, BBX21 (STH2), Arabidopsis thaliana; also called 6×His-tagged BBX21; source: Escherichia coli, purified) MKIRCDVCDKEEASVFCTADEASLCGGCDHQVHHANKLASKHLRFSLLYPSSSNTSSPLCDICQDKKALLFCQQDRAILCKDCDSSIHAANEHTKKHDRFLLTGVKLSATSSVYKPTSKSSSSSSSNQDFSVPGSSISNPPPLKKPLSAPPQSNKIQPFSKINGGDASVNQWGSTSTISEYLMDTLPGWHVEDFLDSSLPTYGFSKSGDDDGVLPYMEPEDDNNTKRNNNNNNNNNNNTVSLPSKNLGIWVPQIPQTLPSSYPNQYFSQDNNIQFGMYNKETSPEVVSFAPIQNMKQQGQNNKRWYDDGGFTVPQITPPPLSSNKKFRSFW",binds,,
ABI5 promoter probe (dsDNA) DNA 1: GATTCCGAACTTCCATTGGGAGTGCACGTGGACTATTCACTGCATAAGG DNA 2: CCTTATGCAGTGAATAGTCCACGTGCACTCCCAATGGAAGTTCGGAATC,,binds,no binding
